In the supplement of paper PMC10567573:
± gives the standard deviation.

Test: protein stability index of a GFP-peptide fusion (GPS, HEK-293T) (PSI 1-6); higher = more stable
Details: c terminus: a fixed tail appended
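Further: 24-mer peptide tiles fused after GFP, lentivirally expressed, FACS-sorted into six equal bins by GFP/DsRed ratio, decoded by Illumina sequencing, PSI is the read-weighted mean bin number.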

Sequence | protein stability index (treatment: DMSO) | protein stability index (treatment: MLN4924 1 uM, 8 h)
SFRGAFSNSEKAKNIFRIRFHDPS [NET1] | 2.59 ± 0.34 | 2.65 ± 0.12
DPALRRRRRGPRNKKRGWRRLAQE [NOP53] | 4.73 ± 0.3 | 4.92 ± 0.24
TFPASVLAPVPTHSTVSELSRSPV [DUSP5] | 3.92 ± 0.082 | 4.14 ± 0.39
TWEQTFQELIQEAKPRATWTLKLD [RTP4] | 2.02 ± 0.24 | 2.25 ± 0.33
AILVMHHSMKPHPAITATLLDFMC [INTS3] | 2.91 ± 0.36 | 2.98 ± 0.47
YKILLDVKTRLEQEIATYRRLLEG [KRT17] | 2.32 ± 0.14 | 2.39 ± 0.37
KDRMKSDHKRETERVVREALEKLR [ZMYND11] | 3.18 ± 0.13 | 3.58 ± 0.32
DLYNWEVAIFGPPNTYYEGGYFKA [CDC34] | 2.65 ± 0.5 | 2.51 ± 0.95
SRKIAVEDENDLEELNNGEPQTEH [MIA2] | 5.61 ± 0.13 | 5.37 ± 0.29
LDEFARENIDSLYNVNLSKGRAAL [SCNN1D] | 3.82 ± 0.17 | 3.85 ± 0.31
IDKFGFIVGSQGAEGALEEVPLEV [TBC1D10A] | 4.32 ± 0.16 | 4.42 ± 0.34
KVTDHATTALLHYQLPQMPDVVVR [MED27] | 3.07 ± 0.19 | 3.28 ± 0.24
IIPTPDEEEKILRVKLEEDPDGEE [ZNF24] | 5.44 ± 0.4 | 5.52 ± 0.57
VSISISGSSRPCLDFLQEVTRQPR [ASB7] | 1.93 ± 0.48 | 2.05 ± 0.3
TFNRWGTLLAVGCNDGRIVIWDFL [RBBP5] | 2.35 ± 0.41 | 2.18 ± 0.27
ASSGQHHDFLSDLFSDDYGGKNCK [CEBPB] | 4.54 ± 0.35 | 4.66 ± 0.45
PTVGIGGDRLQFNQLSQAELDELA [EFHC1] | 5.13 ± 0.23 | 5.27 ± 0.15
CGKAFYKKYRLTEHERAHRGEKPH [ZNF649] | 3.03 ± 0.33 | 3.18 ± 0.18
DSFTTNKEHAVTMPCTWVMACAYA [GNB5] | 2.73 ± 0.79 | 2.53 ± 0.58
KSNGFFHGISIPEPEDMETLEEKF [CDKL4] | 4.5 ± 0.14 | 4.56 ± 0.27
PSDKVGRADAHLGSSSVALPKEAS [TOR1AIP2] | 5.23 ± 0.14 | 5.04 ± 0.091
ESQVFSEKLATDTSTFEATSEGTL [ZNF232] | 5.29 ± 0.13 | 5.15 ± 0.13

Sequence | protein stability index (treatment: DMSO) | protein stability index (treatment: MLN4924 1 uM, 8 h)
AALAVNTSILSRLPPEALTAPSGG [RNF208] | 3.44 ± 0.24 | 3.45 ± 0.14
ATAFSKLKPESSQQPGQDALAVKA [ZBED1] | 4.8 ± 0.5 | 5.21 ± 0.12
CCCCYQSKSLMTSVPMNGTSIQWK [EDNRA] | 2.2 ± 0.26 | 2.39 ± 0.31
RIHTGERPYMCKECGKAFSQNSSL [ZNF8] | 2.84 ± 0.39 | 3.2 ± 0.74
MSGGPMGGRPGGRGAPAVQQNIPS [WAS] | 4.31 ± 0.35 | 4.62 ± 0.18
AAHAAQAHRERNEFPEDPEFEAVV [PI4K2A] | 5.29 ± 0.66 | 5.3 ± 0.28
VAKKTPTKRSTLIISGVSKVPIAQ [C2CD2L] | 3.02 ± 0.33 | 3.24 ± 0.33
LLPLRTKVAKLLGYSTHADFVLEM [NLN] | 2.22 ± 0.43 | 2.32 ± 0.28
ESENASLREKLRLREAEIARIRDE [LRRC45] | 5.26 ± 0.17 | 5.11 ± 0.11
TDQAIFYAVTPLPWCPHLVAVCPI [HDAC6] | 3.09 ± 0.61 | 3.22 ± 0.41
RQVVQDLLKAGAEVNVLNDMRDTP [OSBPL1A] | 4.45 ± 0.21 | 4.24 ± 0.25
SVKLRGSSLFMDTEKSGKREFDVR [WEE1] | 3.86 ± 0.36 | 3.94 ± 0.095
MLCSQPGLANSSRVRGRVGTIRPV [C22orf15] | 3.23 ± 0.27 | 3.37 ± 0.2
FLQNAKTLLKKISEASKAFQMEKI [TRIM55] | 3 ± 0.65 | 2.77 ± 0.42
LLRDQFVKALEDFEDLCDRVFSDE [FAM9B] | 2.97 ± 0.29 | 3.17 ± 0.38
YYAKRNALRAAEVWMDDFKSHVYM [GALNT9] | 2.24 ± 0.44 | 2.12 ± 0.26
RRITYLQNPKDCSKAKKLVCNINK [FUT8] | 2.77 ± 0.28 | 3.05 ± 0.26
EVHFLHEESILERVQQHIESKLLG [MLH1] | 2.98 ± 0.19 | 3.19 ± 0.24
NLNEDDTFLVFSKAELGALPHDFI | 2.82 ± 0.2 | 2.87 ± 0.16
YAMKYMNKQKCVERNEVRNVFKEL [STK32A] | 2.07 ± 0.41 | 2.24 ± 0.62
KQGYILNSDQTTCRIQDLCAMEDH [MATN2] | 3.35 ± 0.27 | 3.17 ± 0.39
KTKEVQHNCQLHRISFCADDKTDK [GULP1] | 4.66 ± 0.36 | 4.71 ± 0.21

Sequence | protein stability index (treatment: DMSO) | protein stability index (treatment: MLN4924 1 uM, 8 h)
APVPEPPKEEQQQALEQFAAAAAH [EPB41L3] | 5.54 ± 0.21 | 5.56 ± 0.17
SRSAILIQHRRTHTDSKYEHAIAE [ZNF396] | 3.63 ± 0.15 | 3.72 ± 0.19
LTILAKRKSLFDDKAVEIEELTYI [STX5] | 2.2 ± 0.35 | 2.22 ± 0.49
LLAKNSKPIHTTILNPHVHVIGED [CAMK2B] | 3.2 ± 0.14 | 3.35 ± 0.22
TGGSADLFGGFADFGSAAASGSFP [CLINT1] | 3.69 ± 0.35 | 3.62 ± 0.24
CLLTYGMTSSSAYYYTKVMSELFL [PKD2L1] | 3.23 ± 0.41 | 2.83 ± 0.73
KELEDMNQKLFDLRGKFKRPPLRR [TNNI2] | 3.86 ± 0.19 | 4.1 ± 0.42
TASDGGDPLRSGTVLVSVTVFDAN [PCDHGA10] | 2.31 ± 0.52 | 2.13 ± 0.091
SAAWMKERTSPGAIHYCASTSEES [SPDEF] | 4.66 ± 0.13 | 4.72 ± 0.3
VRRGHSHLAPSEAKAADSPTRNDL | 4.96 ± 0.16 | 4.9 ± 0.2
MTESLEASEFLEQSMSQTRELLLD [RSPH3] | 4.9 ± 0.12 | 4.98 ± 0.32
RYPVCKFPSLQVTAILIECGADVN [FEM1C] | 2.71 ± 0.72 | 2.65 ± 0.61
SDLGFEVKCFNDLKAEELLLKIHE [CASP6] | 2.48 ± 0.28 | 2.69 ± 0.37
SKPSSDLLDLQPDFSSGGAAAAAA [SNAP91] | 4.99 ± 0.37 | 5.027 ± 0.049
MSTNTVGLGLPMSRSQNTDMVQKS [CLINT1] | 4.59 ± 0.13 | 4.7 ± 0.28
TGESSEPEAKVLHTKRLYRAVVEA [SMG5] | 3.65 ± 0.33 | 3.63 ± 0.24
HLLIPELGACVAPGGNLIVELARY [DNAAF3] | 2.28 ± 0.085 | 2.25 ± 0.24
QVHDDDLLSSSEEECKDRERPMYG [EMD] | 5.49 ± 0.22 | 5.41 ± 0.13
LEAIQLDGEILFSLLQKVSPVAHK [TBC1D10A] | 2.12 ± 0.48 | 2.01 ± 0.34
VHTKEQILELLVLEQFLAILPKEL [ZNF396] | 3.22 ± 0.74 | 2.43 ± 0.63
QKAVKSCLVCQASFCELHLKPHLE [TRIM29] | 3.86 ± 0.19 | 3.86 ± 0.25
